Results reported in the RNAGym collection of RNA variant scans (doi:10.1093/molbev/msab373).

B1: Azoarcus group I ribozyme (parent)
chain: GUGCCUUGCGCCGGGAAACCACGCAAGGGAUGGUGUCAAAUUCGGCGAAACCUAAGCGCCCGCCCGGGCGUAUGGCAACGCCGAGCCAAGCUUCGGCGCCUGCGCCGAUGAAGGUGUAGAGACUAGACGGCACCCACCUAAGGCAAACGCUAUGGUGAAGGCAUAGUCCAGGGAGUGGCGAAAGUCACACAAACCGG

Variants of: B1
Assay: reverse-splicing fitness (ratio to wild type); higher = more active; in vitro selection; Mg2+ level not given
How it was run: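 An in vitro group I ribozyme library with randomized positions was T7-transcribed and gel-purified. In triplicate, 10 pmol RNA in EPPS pH 7.5 was reacted with 50 pmoles of a 30-nt RNA substrate for 1 h at 37 °C across several added MgCl2 levels (1–48 mM), then stopped with EDTA. Products were reverse transcribed from a substrate-complementary primer, PCR-amplified and sequenced (HiSeq 4000). Fitness is a variant's read proportion after selection over that before, normalised to wild type.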

Row | Variant | reverse-splicing fitness
1 | C82A A111G A120G C150G C169U U176G | 0.00657
2 | C82A A111G A120G C150G U176A | 0.0058
3 | C82A A111G A120G C150G U176C | 0.00974
4 | C82A A111G A120G C150G U176G | 0.00346
5 | C82A A111G A120G C150U | 0.0127
6 | C82A A111G A120G C150U C169A | 0.00952
7 | C82A A111G A120G C150U C169A U176A | 0.0153
8 | C82A A111G A120G C150U C169A U176C | 0.0173
9 | C82A A111G A120G C150U C169A U176G | 0.00549
10 | C82A A111G A120G C150U C169G | 0.0108
11 | C82A A111G A120G C150U C169G U176A | 0.0166
12 | C82A A111G A120G C150U C169G U176C | 0.0192
13 | C82A A111G A120G C150U C169G U176G | 0.0061
14 | C82A A111G A120G C150U C169U | 0.0102
15 | C82A A111G A120G C150U C169U U176A | 0.023
16 | C82A A111G A120G C150U C169U U176C | 0.0179
17 | C82A A111G A120G C150U C169U U176G | 0.00738
18 | C82A A111G A120G C150U U176A | 0.0108
19 | C82A A111G A120G C150U U176C | 0.0156
20 | C82A A111G A120G C150U U176G | 0.00781
21 | C82A A111G A120G C169A | 0.0105

Row | Variant | reverse-splicing fitness
22 | C82A A111G A120G C169A U176A | 0.0178
23 | C82A A111G A120G C169A U176C | 0.0213
24 | C82A A111G A120G C169A U176G | 0.00477
25 | C82A A111G A120G C169G | 0.0125
26 | C82A A111G A120G C169G U176A | 0.0226
27 | C82A A111G A120G C169G U176C | 0.0229
28 | C82A A111G A120G C169G U176G | 0.00458
29 | C82A A111G A120G C169U | 0.0111
30 | C82A A111G A120G C169U U176A | 0.0208
31 | C82A A111G A120G C169U U176C | 0.0183
32 | C82A A111G A120G C169U U176G | 0.00531
33 | C82A A111G A120G U176A | 0.0146
34 | C82A A111G A120G U176C | 0.0182
35 | C82A A111G A120G U176G | 0.00613
36 | C82A A111G A120U | 0.0351
37 | C82A A111G A120U A145C | 0.027
38 | C82A A111G A120U A145C C150A | 0.00468
39 | C82A A111G A120U A145C C150A C169A | 0.00211
40 | C82A A111G A120U A145C C150A C169A U176A | 0.0022
41 | C82A A111G A120U A145C C150A C169A U176C | 0.0024
42 | C82A A111G A120U A145C C150A C169A U176G | 0.00214

Row | Variant | reverse-splicing fitness
43 | C82A A111G A120U A145C C150A C169G | 0.00279
44 | C82A A111G A120U A145C C150A C169G U176A | 0.00315
45 | C82A A111G A120U A145C C150A C169G U176C | 0.00235
46 | C82A A111G A120U A145C C150A C169G U176G | 0.00149
47 | C82A A111G A120U A145C C150A C169U | 0.00264
48 | C82A A111G A120U A145C C150A C169U U176A | 0.00351
49 | C82A A111G A120U A145C C150A C169U U176C | 0.00198
50 | C82A A111G A120U A145C C150A C169U U176G | 0.00212
51 | C82A A111G A120U A145C C150A U176A | 0.003
52 | C82A A111G A120U A145C C150A U176C | 0.00355
53 | C82A A111G A120U A145C C150A U176G | 0.00207
54 | C82A A111G A120U A145C C150G | 0.00637
55 | C82A A111G A120U A145C C150G C169A | 0.0025
56 | C82A A111G A120U A145C C150G C169A U176A | 0.00214
57 | C82A A111G A120U A145C C150G C169A U176C | 0.00205
58 | C82A A111G A120U A145C C150G C169A U176G | 0.00179
59 | C82A A111G A120U A145C C150G C169G | 0.00351
60 | C82A A111G A120U A145C C150G C169G U176A | 0.00289
61 | C82A A111G A120U A145C C150G C169G U176C | 0.00289
62 | C82A A111G A120U A145C C150G C169G U176G | 0.00217
63 | C82A A111G A120U A145C C150G C169U | 0.00332

Row | Variant | reverse-splicing fitness
64 | C82A A111G A120U A145C C150G C169U U176A | 0.00268
65 | C82A A111G A120U A145C C150G C169U U176C | 0.0028
66 | C82A A111G A120U A145C C150G C169U U176G | 0.00231
67 | C82A A111G A120U A145C C150G U176A | 0.00295
68 | C82A A111G A120U A145C C150G U176C | 0.00393
69 | C82A A111G A120U A145C C150G U176G | 0.00262
70 | C82A A111G A120U A145C C150U | 0.0111
71 | C82A A111G A120U A145C C150U C169A | 0.00248
72 | C82A A111G A120U A145C C150U C169A U176A | 0.00228
73 | C82A A111G A120U A145C C150U C169A U176C | 0.00215
74 | C82A A111G A120U A145C C150U C169A U176G | 0.00215
75 | C82A A111G A120U A145C C150U C169G | 0.00298
76 | C82A A111G A120U A145C C150U C169G U176A | 0.00301
77 | C82A A111G A120U A145C C150U C169G U176C | 0.0025
78 | C82A A111G A120U A145C C150U C169G U176G | 0.00192
79 | C82A A111G A120U A145C C150U C169U | 0.00308
80 | C82A A111G A120U A145C C150U C169U U176A | 0.0026
81 | C82A A111G A120U A145C C150U C169U U176C | 0.0025
82 | C82A A111G A120U A145C C150U C169U U176G | 0.00193
83 | C82A A111G A120U A145C C150U U176A | 0.00447
